# Where two headings read alike, the source gives them in different places.
# B1: U5-PBS DNA template/primer extended by ddT (dsDNA)
# DNA 1: GGGACCTGAAAGCGAAAGGGAAAC
# DNA 2: GTTTCCCTTTCGCTTTCAGGT
# modifications: primer 3'-terminal 2',3'-dideoxy-T (incorporated from ddTTP)
# B2: U5-PBS DNA template/primer, unextended (primer ends in G) (dsDNA)
# DNA 1: GGGACCTGAAAGCGAAAGGGAAAC
# DNA 2: GTTTCCCTTTCGCTTTCAGG
# Assays:
# [1] = target: T1, HERV-K reverse transcriptase (RT) (Human endogenous retrovirus K (Homo …, UniProt V9H0F6 1-596)); experiment: X-ray crystallography
# T1 sequence: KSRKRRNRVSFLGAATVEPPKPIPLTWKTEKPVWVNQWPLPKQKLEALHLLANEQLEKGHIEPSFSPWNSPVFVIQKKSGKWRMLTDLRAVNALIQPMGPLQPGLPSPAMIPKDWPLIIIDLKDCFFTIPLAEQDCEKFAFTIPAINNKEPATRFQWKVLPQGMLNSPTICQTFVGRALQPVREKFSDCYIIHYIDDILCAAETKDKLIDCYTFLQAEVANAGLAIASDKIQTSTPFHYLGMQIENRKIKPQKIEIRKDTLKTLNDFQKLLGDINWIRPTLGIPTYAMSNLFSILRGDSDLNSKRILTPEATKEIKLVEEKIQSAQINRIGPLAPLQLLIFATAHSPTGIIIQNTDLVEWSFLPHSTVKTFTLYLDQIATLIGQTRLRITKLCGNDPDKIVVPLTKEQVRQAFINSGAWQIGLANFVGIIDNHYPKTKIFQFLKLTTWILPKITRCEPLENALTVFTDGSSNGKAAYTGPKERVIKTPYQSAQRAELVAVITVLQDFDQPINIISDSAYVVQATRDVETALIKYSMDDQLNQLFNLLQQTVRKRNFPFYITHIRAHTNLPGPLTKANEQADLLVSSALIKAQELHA
# [2] = target: T1, HERV-K reverse transcriptase (RT); experiment: X-ray crystallography; remark: listed apart in the source
Binder,binding result [1],binding result [2]
B1,binds,–
B2,–,binds

# Reference: PMC9271190
